Target: T1, interaction (binding) between FKBP12 and FRB (Homo sapiens, UniProt P42345+P62942)
T1 construct: FLAG-FRB expression vector; expressed in transfected cells; host or cells: HEK-293T (ATCC CRL-11268)
Assay: Split SEAP fragment complementation: SEAP activity in culture supernatant (pNpp, absorbance 405 nm) after rapamycin-induced FKBP12-FRB binding
Format: cell-based
Conditions: HEK-293T cells, same manner as Example 2; for SEAP activity of the pair pSNA379 with pSCA373 or pSCB373 (FIG. 6): N-terminal fragment cleaved at 379, C-terminal fragment cleaved at 372; for SEAP activity of the pair pSNA387 with pSCA380 (FIG. 6): N-terminal fragment cleaved at 387, C-terminal fragment cleaved at 379; for SEAP activity of the pair pSNA404 with pSCA388 or pSCB388 (FIG. 6): N-terminal fragment cleaved at 404, C-terminal fragment cleaved at 387; for SEAP activity of the pair pSNA418 with pSCA405 or pSCB405 (FIG. 6): N-terminal fragment cleaved at 418, C-terminal fragment cleaved at 404
Experimental: HEK-293T (Human embryonic kidney cell, ATCC: CRL-11268) cells were cultured in DMEM (Dulbecco's modified Eagle's media, Gibco, Seoul, South Korea) treated with a 10% (v/v) FBS (HyClone) and 1% (v/v) penicillin/streptomycin solution (HyClone) and cultured at 37° C. in a humidified atmosphere containing 5% CO2.
HEK-293T cells were seeded at 2×10^4 cells per well in a 48-well plate and cultured until 24 hours before transformation.
For the transformation, 0.15 μL of PEI (PEI, <20,000 MW, Cat. No. 23966, Polysciences, Inc., Warrington, Pa., USA; stock solution: 4 mg/mL in ddH20, pH 7.2) was mixed with 0.2 pLg of DNA, and the mixture was vortexed for 5 seconds and then incubated for 20 minutes at 25° C. to prepare 40 μL of DNA-PEI mixture per well. At this time, the DNA was prepared by mixing a vector (pSNA series) containing a SEAP N-terminal fragment and a vector (pSCA or pSCB series) containing a SEAP C-terminal fragment.
After 24 hours of the transformation, the culture medium was replaced with DMEM with 100 nM rapamycin or DMEM without rapamycin.
SEAP activity was measured after 24 hours. The SEAP activity was measured in a time course using a p-nitrophenylphosphate (pNpp)-based absorbance (405 nm) measuring method. 80 μL of a culture medium supernatant, 100 μL of a 2× SEAP buffer solution (21% diethanolamine, 20 mM L-homoarginine, and 1 mM MgCl2, pH 9.8), and 20 μL of 120 mM pNpp were mixed and reacted with one another, and then absorbance at 405 nm was measured.

T1 sequence (P62942 whole entry): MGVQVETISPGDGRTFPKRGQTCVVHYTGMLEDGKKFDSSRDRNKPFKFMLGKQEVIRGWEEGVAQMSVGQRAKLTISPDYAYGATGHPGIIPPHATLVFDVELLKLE
T1 sequence (P42345 2012-2144): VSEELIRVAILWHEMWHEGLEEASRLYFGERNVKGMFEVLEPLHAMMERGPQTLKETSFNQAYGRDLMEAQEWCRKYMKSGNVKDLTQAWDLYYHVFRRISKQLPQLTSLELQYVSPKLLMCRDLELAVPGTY

pSNA379: HA-FKBP-snSEAP fusion: SEAP N-terminal fragment (1-379) fused to C-terminal of FKBP12, expression vector
SEAP activity of the pair pSNA379 with pSCA373 or pSCB373 (FIG. 6): excellent SEAP activity

pSNA387: HA-FKBP-snSEAP fusion: SEAP N-terminal fragment (1-387), expression vector
SEAP activity of the pair pSNA387 with pSCA380 (FIG. 6): excellent SEAP activity

pSNA404: HA-FKBP-snSEAP fusion: SEAP N-terminal fragment (1-404), expression vector
SEAP activity of the pair pSNA404 with pSCA388 or pSCB388 (FIG. 6): excellent SEAP activity

pSNA418: HA-FKBP-snSEAP fusion: SEAP N-terminal fragment (1-418), expression vector
SEAP activity of the pair pSNA418 with pSCA405 or pSCB405 (FIG. 6): excellent SEAP activity

B1: pSCB388: scSEAP-FRB-FLAG fusion: SEAP C-terminal fragment (388-502), cleaved at position 387, expression vector (protein)
chain: YTVLLYGNGPGYVLKDGARPDVTESESGSPEYRQQSAVPLDEETHAGEDVAVFARGPQAHLVHGVQEQTFIAHVMAFAACLEPYTACDLAPPAGTTDAAHPGYSRVGAAGRFEQTKGSGSTSGSGILWHEMWHEGLEEASRLYFGERNVKGMFEVLEPLHAMMERGPQTLKETSFNQAYGRDLMEAQEWCRKYMKSGNVKDLTQAWDLYYHVFRRISK
modifications: left off: small tags and cut ends
notes: scSEAP-FRB-FLAG fusion: SEAP C-terminal fragment (388-502), cleaved at position 387, expression vector
SEAP activity of the pair pSNA404 with pSCA388 or pSCB388 (FIG. 6): excellent SEAP activity

B2: pSCA373: FLAG-FRB-scSEAP fusion: SEAP C-terminal fragment (373-502), cleaved at position 372, expression vector (protein)
chain: ILWHEMWHEGLEEASRLYFGERNVKGMFEVLEPLHAMMERGPQTLKETSFNQAYGRDLMEAQEWCRKYMKSGNVKDLTQAWDLYYHVFRRISKKGSGSTSGSGSIFGLAPGKARDRKAYTVLLYGNGPGYVLKDGARPDVTESESGSPEYRQQSAVPLDEETHAGEDVAVFARGPQAHLVHGVQEQTFIAHVMAFAACLEPYTACDLAPPAGTTDAAHPGYSRVGAAGRFEQT
modifications: left off: small tags and cut ends
notes: FLAG-FRB-scSEAP fusion: SEAP C-terminal fragment (373-502), cleaved at position 372, expression vector
SEAP activity of the pair pSNA379 with pSCA373 or pSCB373 (FIG. 6): excellent SEAP activity

B3: pSCB405: scSEAP-FRB-FLAG fusion: SEAP C-terminal fragment (405-502), cleaved at position 404, expression vector (protein)
chain: ARPDVTESESGSPEYRQQSAVPLDEETHAGEDVAVFARGPQAHLVHGVQEQTFIAHVMAFAACLEPYTACDLAPPAGTTDAAHPGYSRVGAAGRFEQTKGSGSTSGSGILWHEMWHEGLEEASRLYFGERNVKGMFEVLEPLHAMMERGPQTLKETSFNQAYGRDLMEAQEWCRKYMKSGNVKDLTQAWDLYYHVFRRISK
modifications: left off: small tags and cut ends
notes: scSEAP-FRB-FLAG fusion: SEAP C-terminal fragment (405-502), cleaved at position 404, expression vector
SEAP activity of the pair pSNA418 with pSCA405 or pSCB405 (FIG. 6): excellent SEAP activity

B4: pSCA405: FLAG-FRB-scSEAP fusion: SEAP C-terminal fragment (405-502), cleaved at position 404, expression vector (protein)
chain: ILWHEMWHEGLEEASRLYFGERNVKGMFEVLEPLHAMMERGPQTLKETSFNQAYGRDLMEAQEWCRKYMKSGNVKDLTQAWDLYYHVFRRISKKGSGSTSGSGARPDVTESESGSPEYRQQSAVPLDEETHAGEDVAVFARGPQAHLVHGVQEQTFIAHVMAFAACLEPYTACDLAPPAGTTDAAHPGYSRVGAAGRFEQT
modifications: left off: small tags and cut ends
notes: FLAG-FRB-scSEAP fusion: SEAP C-terminal fragment (405-502), cleaved at position 404, expression vector
SEAP activity of the pair pSNA418 with pSCA405 or pSCB405 (FIG. 6): excellent SEAP activity

B5: pSCA388: FLAG-FRB-scSEAP fusion: SEAP C-terminal fragment (388-502), cleaved at position 387, expression vector (protein)
chain: ILWHEMWHEGLEEASRLYFGERNVKGMFEVLEPLHAMMERGPQTLKETSFNQAYGRDLMEAQEWCRKYMKSGNVKDLTQAWDLYYHVFRRISKKGSGSTSGSGYTVLLYGNGPGYVLKDGARPDVTESESGSPEYRQQSAVPLDEETHAGEDVAVFARGPQAHLVHGVQEQTFIAHVMAFAACLEPYTACDLAPPAGTTDAAHPGYSRVGAAGRFEQT
modifications: left off: small tags and cut ends
notes: FLAG-FRB-scSEAP fusion: SEAP C-terminal fragment (388-502), cleaved at position 387, expression vector
SEAP activity of the pair pSNA404 with pSCA388 or pSCB388 (FIG. 6): excellent SEAP activity

B6: pSCA380: FLAG-FRB-scSEAP fusion: SEAP C-terminal fragment (380-502), cleaved at position 379, expression vector (protein)
chain: ILWHEMWHEGLEEASRLYFGERNVKGMFEVLEPLHAMMERGPQTLKETSFNQAYGRDLMEAQEWCRKYMKSGNVKDLTQAWDLYYHVFRRISKKGSGSTSGSGGKARDRKAYTVLLYGNGPGYVLKDGARPDVTESESGSPEYRQQSAVPLDEETHAGEDVAVFARGPQAHLVHGVQEQTFIAHVMAFAACLEPYTACDLAPPAGTTDAAHPGYSRVGAAGRFEQT
modifications: left off: small tags and cut ends
notes: FLAG-FRB-scSEAP fusion: SEAP C-terminal fragment (380-502), cleaved at position 379, expression vector
SEAP activity of the pair pSNA387 with pSCA380 (FIG. 6): excellent SEAP activity

B7: pSCB373: scSEAP-FRB-FLAG fusion: SEAP C-terminal fragment (373-502), cleaved at position 372, expression vector (protein)
chain: SIFGLAPGKARDRKAYTVLLYGNGPGYVLKDGARPDVTESESGSPEYRQQSAVPLDEETHAGEDVAVFARGPQAHLVHGVQEQTFIAHVMAFAACLEPYTACDLAPPAGTTDAAHPGYSRVGAAGRFEQTKGSGSTSGSGILWHEMWHEGLEEASRLYFGERNVKGMFEVLEPLHAMMERGPQTLKETSFNQAYGRDLMEAQEWCRKYMKSGNVKDLTQAWDLYYHVFRRISK
modifications: left off: small tags and cut ends
notes: scSEAP-FRB-FLAG fusion: SEAP C-terminal fragment (373-502), cleaved at position 372, expression vector
SEAP activity of the pair pSNA379 with pSCA373 or pSCB373 (FIG. 6): excellent SEAP activity

Reference: patent publication US20200308559A1, “Composition for detecting protein-protein interactions comprising fragments of secreted alkaline phosphatase (SEAP) and method for detecting protein-protein interactions using the same” (priority 2019, published 2020)
